Publication PMC9523049

Target: Mec1-Ddc2 heterodimer (yeast (endogenous in cultured yeast cells)) (UniProt P38111)
Assay: cryo-EM structure; Mec1-Ddc2 complex endogenously purified from yeast cells treated with HU (HU-Dimer1, HU-Dimer2) or MMS (MMS-Dimer)

stoichiometry N: 2
Substance: Mec1-Ddc2 heterodimer, P38111 1-2368; Q04377 1-747
